Data on 1 molecule can be found in publication PMC11802746 (Nature Communications, 2025).

In this assay the target is GST-MST3 (human, UniProt Q9Y6E0-2 1-431). In words: pull-down.

B1: His-SUMO-tagged PGAM5 (25-289) (domain or fragment, human, UniProt Q96HS1 25-289, looked up)
chain: AVAVGKPRAGGDAEPRPAEPPAWAGGARPGPGVWDPNWDRREPLSLINVRKRNVESGEEELASKLDHYKAKATRHIFLIRHSQYHVDGSLEKDRTLTPLGREQAELTGLRLASLGLKFNKIVHSSMTRAIETTDIISRHLPGVCKVSTDLLREGAPIEPDPPVSHWKPEAVQYYEDGARIEAAFRNYIHRADARQEEDSYEIFICHANVIRYIVCRALQFPPEGWLRLSLNNGSITHLVIRPNGRVALRTLGDTGFMPPDKITRS
Turning to B1, the binding result is given as “binds”.
